Biological target: Growth Factor Receptor-bound 2 (GRB2), endogenous in HEK cells (human (endogenous in HEK), UniProt P62993 1-217)
Test: co-IP

Growth Factor Receptor-bound 2 (GRB2), endogenous in HEK cells, sequence (P62993 whole entry): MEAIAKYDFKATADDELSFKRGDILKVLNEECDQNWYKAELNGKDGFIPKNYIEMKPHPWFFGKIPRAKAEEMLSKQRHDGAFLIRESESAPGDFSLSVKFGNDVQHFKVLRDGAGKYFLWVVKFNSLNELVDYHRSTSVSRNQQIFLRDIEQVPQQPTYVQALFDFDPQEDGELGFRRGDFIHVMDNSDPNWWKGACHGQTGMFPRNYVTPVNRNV

B1: wild-type SWELL1 (SWELL1^WT), transiently expressed in HEK cells (natural protein, UniProt Q8IWT6 1-810, looked up)
chain: MIPVTELRYFADTQPAYRILKPWWDVFTDYISIVMLMIAVFGGTLQVTQDKMICLPCKWVTKDSCNDSFRGWAAPGPEPTYPNSTILPTPDTGPTGIKYDLDRHQYNYVDAVCYENRLHWFAKYFPYLVLLHTLIFLACSNFWFKFPRTSSKLEHFVSILLKCFDSPWTTRALSETVVEESDPKPAFSKMNGSMDKKSSTVSEDVEATVPMLQRTKSRIEQGIVDRSETGVLDKKEGEQAKALFEKVKKFRTHVEEGDIVYRLYMRQTIIKVIKFILIICYTVYYVHNIKFDVDCTVDIESLTGYRTYRCAHPLATLFKILASFYISLVIFYGLICMYTLWWMLRRSLKKYSFESIREESSYSDIPDVKNDFAFMLHLIDQYDPLYSKRFAVFLSEVSENKLRQLNLNNEWTLDKLRQRLTKNAQDKLELHLFMLSGIPDTVFDLVELEVLKLELIPDVTIPPSIAQLTGLKELWLYHTAAKIEAPALAFLRENLRALHIKFTDIKEIPLWIYSLKTLEELHLTGNLSAENNRYIVIDGLRELKRLKVLRLKSNLSKLPQVVTDVGVHLQKLSINNEGTKLIVLNSLKKMANLTELELIRCDLERIPHSIFSLHNLQEIDLKDNNLKTIEEIISFQHLHRLTCLKLWYNHIAYIPIQIGNLTNLERLYLNRNKIEKIPTQLFYCRKLRYLDLSHNNLTFLPADIGLLQNLQNLAITANRIETLPPELFQCRKLRALHLGNNVLQSLPSRVGELTNLTQIELRGNRLECLPVELGECPLLKRSGLVVEEDLFNTLPPEVKERLWRADKEQA
- densitometry ratio SWELL1/GRB2 in the GRB2 immunoprecipitate: 0.31

— paper PMC5415409 (Nature cell biology, 2017)
